Among the data in paper PMC10991105 are Km and kcat values, retold here.

Substrate in the data set: CCCCCCCCCCCCCCCC(=O)Oc1ccc([N+](=O)[O-])cc1
Put plainly: p-NPP hydrolysis, Lineweaver-Burk. In kind it is biochemical, Thermomyces lanuginosus. Conditions: free enzyme; p-NPP 0.05-0.5 mg/mL. An excerpt: p-NPP hydrolysis, Lineweaver-Burk on Thermomyces lanuginosus lipase (TLLs)

By Km is commonly meant the substrate concentration at which the rate is half of its maximum. One may read the kcat as the number of substrate molecules converted per active site and unit of time at saturation.

B1: Thermomyces lanuginosus lipase (TLLs) (Thermomyces lanuginosus) (protein)
chain: EVSQDLFNQFNLFAQYSAAAYCGKNNDAPAGTNITCTGNACPEVEKADATFLYSFEDSGVGDVTGFLALDNTNKLIVLSFRGSRSIENWIGNLNFDLKEINDICSGCRGHDGFTSSWRSVADTLRQKVEDAVREHPDYRVVFTGHSLGGALATVAGADLRGNGYDIDVFSYGAPRVGNRAFAEFLTVQTGGTLYRITHTNDIVPRLPPREFGYSHSSPEYWIKSGTLVPVTRNDIVKIEGIDATGGNNQPNIPDIPAHLWYFGLIGTCL
notes: commercial free lipase from Novozymes
As to B1, the Michaelis constant (Km) was determined as 1396 µM and the kcat was 22800 s⁻¹.
